# The supplement of paper PMC9732359
# ± gives the uncertainty stated by the source.
# Experiment: protein stability index of a GFP-peptide fusion (yeast GPS) (PSI 1-4); higher = more stable; sorted into four equal gates, so the index is relative within each strain
# Outline: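 Plasmids in a pooled yeast library fused tiled 17-residue yeast protein peptides downstream of GFP and also expressed Cherry. Mid-log cultures grown without leucine were sorted into four equal gates by GFP/Cherry fluorescence ratio. Each gate's plasmids were PCR-amplified and Illumina-sequenced, and reads were matched to strains by barcodes. The protein stability index is derived by multiplying each gate's read frequency by its gate number and summing the results.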
sequence,measurement,setting,value
TWENEFLDSQRVWAEYA [PRP8],protein stability index,doa10∆,2.14 ± 0.088
same,protein stability index,pdr5∆,2.27 ± 0.072
same,protein stability index,san1∆,2.13 ± 0.11
same,protein stability index,ubr1∆,2.89 ± 0.11
LAHYVVTAKLLGFTPGE [FAS1],protein stability index,doa10∆,1.6 ± 0.13
same,protein stability index,pdr5∆,1.28 ± 0.082
same,protein stability index,ubr1∆,1.48 ± 0.12
WKYEDVVAKLEDKRKVR [RPL16B],protein stability index,doa10∆,3.12 ± 0.064
same,protein stability index,pdr5∆,2.32 ± 0.059
same,protein stability index,san1∆,2.36 ± 0.093
same,protein stability index,ubr1∆,2.02 ± 0.045
NRKVLQALEKIGIVEIS [RPS19A],protein stability index,doa10∆,2.34 ± 0.1
same,protein stability index,pdr5∆,2.27 ± 0.1
same,protein stability index,san1∆,2.24 ± 0.074
same,protein stability index,ubr1∆,2.31 ± 0.07
YSVYLIHEIRLNTLNNV [SIR3],protein stability index,doa10∆,1.85 ± 0.089
same,protein stability index,pdr5∆,1.99 ± 0.067
same,protein stability index,san1∆,2.25 ± 0.1
same,protein stability index,ubr1∆,2.34 ± 0.048
GTISKLENKENGLLNEI [SMC2],protein stability index,doa10∆,3.45 ± 0.29
same,protein stability index,pdr5∆,3.28 ± 0.087
same,protein stability index,san1∆,3.36 ± 0.1
same,protein stability index,ubr1∆,3.35 ± 0.17
FPQGLNIVMDSKQNGIE [SSN8],protein stability index,doa10∆,3.11 ± 0.091
same,protein stability index,pdr5∆,3.04 ± 0.21
same,protein stability index,san1∆,3.26 ± 0.078
same,protein stability index,ubr1∆,2.61 ± 0.1
ETLENNIVSVLTAGVNS [RPN11],protein stability index,doa10∆,2.5 ± 0.1
same,protein stability index,pdr5∆,2.65 ± 0.076
same,protein stability index,san1∆,2.24 ± 0.11
same,protein stability index,ubr1∆,2.57 ± 0.09
YNSVRPFGVSTIFGGVD [PRE10],protein stability index,doa10∆,2.53 ± 0.083
same,protein stability index,pdr5∆,2.71 ± 0.068
same,protein stability index,san1∆,2.59 ± 0.14
same,protein stability index,ubr1∆,2.57 ± 0.045
DEKLKTEKLKNDKSEVL [SRB8],protein stability index,doa10∆,3.09 ± 0.3
same,protein stability index,pdr5∆,3.74 ± 0.21
same,protein stability index,san1∆,3.24 ± 0.18
same,protein stability index,ubr1∆,3.33 ± 0.22
NDLEVGVATKDKFFTLS [SCL1],protein stability index,doa10∆,3.18 ± 0.084
same,protein stability index,pdr5∆,3.33 ± 0.067
same,protein stability index,san1∆,3.08 ± 0.072
same,protein stability index,ubr1∆,2.89 ± 0.12
VTRLFFICSIIQTVVIS [YML031W/NDC1],protein stability index,doa10∆,1.23 ± 0.051
same,protein stability index,pdr5∆,1.28 ± 0.046
same,protein stability index,san1∆,1.46 ± 0.076
same,protein stability index,ubr1∆,1.75 ± 0.05
PLKTELEANGRSLEKVN [SSN2],protein stability index,doa10∆,3.19 ± 0.12
same,protein stability index,pdr5∆,3.34 ± 0.08
same,protein stability index,san1∆,3.22 ± 0.1
same,protein stability index,ubr1∆,3.55 ± 0.08
AVYETLISRMIFIATQL [BRR2],protein stability index,doa10∆,1.96 ± 0.072
same,protein stability index,pdr5∆,1.55 ± 0.058
same,protein stability index,san1∆,1.29 ± 0.096
same,protein stability index,ubr1∆,1.62 ± 0.041
GRHHQEEELFQEMIEIS [SRP54],protein stability index,doa10∆,3.21 ± 0.058
same,protein stability index,pdr5∆,3.3 ± 0.047
same,protein stability index,san1∆,3.41 ± 0.038
same,protein stability index,ubr1∆,3.35 ± 0.058
ELEQLVEFNRKVVIPNL [RPN3],protein stability index,doa10∆,3.3 ± 0.14
same,protein stability index,pdr5∆,2.77 ± 0.28
same,protein stability index,san1∆,3.26 ± 0.071
same,protein stability index,ubr1∆,3.25 ± 0.11
LMRQALAIKDSKKRFAA [RPO21],protein stability index,doa10∆,1.83 ± 0.062
same,protein stability index,pdr5∆,2.12 ± 0.055
same,protein stability index,san1∆,1.98 ± 0.072
same,protein stability index,ubr1∆,1.53 ± 0.049
KASVTIVFDNTDKSNSP [SMC2],protein stability index,doa10∆,2.99 ± 0.045
same,protein stability index,pdr5∆,3.02 ± 0.044
same,protein stability index,san1∆,2.9 ± 0.042
same,protein stability index,ubr1∆,3.156 ± 0.028
PSKDSFTKYKPARSSSL [YAR002W/NUP60],protein stability index,doa10∆,2.15 ± 0.043
same,protein stability index,pdr5∆,2.59 ± 0.044
same,protein stability index,san1∆,2.44 ± 0.053
same,protein stability index,ubr1∆,2.77 ± 0.04
